Assay results reported in doi:10.1101/2021.12.02.470928.
Like-named read-outs stand apart in the source and are kept apart here.

What was measured:
Assay in all cases: BLI
PAD K118A = PAD K118A (UniProt Q96QC0)
PAD K109A = PAD K109A (UniProt Q96QC0)
PAD M141W [1] = target: PAD M141W (UniProt Q96QC0)
PAD K122A [2] = target: PAD K122A (UniProt Q96QC0)
PAD A114K [3] = target: PAD A114K (UniProt Q96QC0)
PAD M141F [4] = target: PAD M141F (UniProt Q96QC0)
PAD M141W [5] = target: PAD M141W (UniProt Q96QC0); remark: listed apart in the source
PAD A114K [6] = target: PAD A114K (UniProt Q96QC0); remark: listed apart in the source
PAD K122A [7] = target: PAD K122A (UniProt Q96QC0); remark: listed apart in the source
PAD M141F [8] = target: PAD M141F (UniProt Q96QC0); remark: listed apart in the source

Sequence of PAD M141F (Q96QC0 1-148 M141F): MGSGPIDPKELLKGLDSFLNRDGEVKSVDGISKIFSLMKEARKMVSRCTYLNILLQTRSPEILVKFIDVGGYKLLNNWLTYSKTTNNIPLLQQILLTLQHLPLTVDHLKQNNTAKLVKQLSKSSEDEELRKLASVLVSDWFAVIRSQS
Sequence of PAD K122A (Q96QC0 1-148 K122A): as the sequence (Q96QC0 1-148 M141F) above, with K122A, F141M counted along it
Sequence of PAD A114K (Q96QC0 1-148 A114K): as the sequence (Q96QC0 1-148 M141F) above, with A114K, F141M counted along it
Sequence of PAD M141W (Q96QC0 1-148 M141W): as the sequence (Q96QC0 1-148 M141F) above, with F141W counted along it
Sequence of PAD K118A (Q96QC0 1-148 K118A): as the sequence (Q96QC0 1-148 M141F) above, with K118A, F141M counted along it
Sequence of PAD K109A (Q96QC0 1-148 K109A): as the sequence (Q96QC0 1-148 M141F) above, with K109A, F141M counted along it

What does the source list for “biotinyl-MB0 peptide (MYC 16-33) (from UniProt P01106-2 16-33)”?
Kd (PAD K118A): 12 µM; Kd (PAD K109A): 27 µM; Kd (PAD M141W [1]): 24 µM; Kd (PAD K122A [2]): 35 µM; Kd (PAD A114K [3]): 52 µM; Kd (PAD M141F [4]): 19 µM; Kd (PAD M141W [5]): 24 µM; Kd (PAD A114K [6]): 52 µM; Kd (PAD K122A [7]): 35 µM; Kd (PAD M141F [8]): 19 µM
